Laboratory results reported in article PMC10526015.

Legend:
[1] = target: FcγR on THP-1 cells (FcγRI and FcγRII); assay: flow cytometry on cells; THP-1 cells; ~100 nM IgG pre-complexed with 10 nM CD3ε-BSA (CD3ε peptide 21–47 on BSA) 20 min RT, highly avid; 30 min on ice; goat anti-human IgG PE; median fluorescence intensity
[2] = target: ADI-26906 IgG1 LALA-P331S (L234A/L235A/P331S) (human); assay: SPR; Biacore 8K or 8K+, 25 °C, HBS-EP+ pH 7.4; IgG captured (400–425 RU) by goat anti-human Fc on CM5; human FcγRI 100 nM injected; response units at one concentration
Sequence of ADI-26906 IgG1 LALA-P331S (L234A/L235A/P331S) (human) (heavy, as listed by the source, chain 1 of 2): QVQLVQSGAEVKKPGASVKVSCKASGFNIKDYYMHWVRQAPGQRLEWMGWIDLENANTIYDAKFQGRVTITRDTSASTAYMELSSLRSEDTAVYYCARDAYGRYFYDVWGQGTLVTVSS
Sequence of ADI-26906 IgG1 LALA-P331S (L234A/L235A/P331S) (human) (light, as listed by the source, chain 2 of 2): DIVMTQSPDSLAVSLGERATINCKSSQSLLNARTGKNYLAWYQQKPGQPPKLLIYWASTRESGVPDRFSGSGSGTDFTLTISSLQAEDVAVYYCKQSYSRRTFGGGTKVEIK

[3] = target: ADI-26906 IgG1 LALE-L309A (L234A/L235E/L309A) (human); assay: as above
Sequence of ADI-26906 IgG1 LALE-L309A (L234A/L235E/L309A) (human) (heavy, as listed by the source, chain 1 of 2): as the sequence (heavy, as listed by the source, chain 1 of 2) above
Sequence of ADI-26906 IgG1 LALE-L309A (L234A/L235E/L309A) (human) (light, as listed by the source, chain 2 of 2): as the sequence (light, as listed by the source, chain 2 of 2) above

[4] = target: ADI-26906 IgG1 LALE-A330S (L234A/L235E/A330S) (human); assay: as above
Sequence of ADI-26906 IgG1 LALE-A330S (L234A/L235E/A330S) (human) (heavy, as listed by the source, chain 1 of 2): as the sequence (heavy, as listed by the source, chain 1 of 2) above
Sequence of ADI-26906 IgG1 LALE-A330S (L234A/L235E/A330S) (human) (light, as listed by the source, chain 2 of 2): as the sequence (light, as listed by the source, chain 2 of 2) above

[5] = target: ADI-26906 IgG1 LALA-K322A (L234A/L235A/K322A) (human); assay: as above
[6] = target: ADI-26906 IgG1 LALA-D270A (L234A/L235A/D270A) (human); assay: as above
Sequence of ADI-26906 IgG1 LALA-D270A (L234A/L235A/D270A) (human) (heavy, as listed by the source, chain 1 of 2): as the sequence (heavy, as listed by the source, chain 1 of 2) above
Sequence of ADI-26906 IgG1 LALA-D270A (L234A/L235A/D270A) (human) (light, as listed by the source, chain 2 of 2): as the sequence (light, as listed by the source, chain 2 of 2) above

[7] = target: ADI-26906 IgG1 LALE-L309V (L234A/L235E/L309V) (human); assay: as above
Sequence of ADI-26906 IgG1 LALE-L309V (L234A/L235E/L309V) (human) (heavy, as listed by the source, chain 1 of 2): as the sequence (heavy, as listed by the source, chain 1 of 2) above
Sequence of ADI-26906 IgG1 LALE-L309V (L234A/L235E/L309V) (human) (light, as listed by the source, chain 2 of 2): as the sequence (light, as listed by the source, chain 2 of 2) above

[8] = target: ADI-26906 IgG1 LALA-Y296F (L234A/L235A/Y296F) (human); assay: as above
Sequence of ADI-26906 IgG1 LALA-Y296F (L234A/L235A/Y296F) (human) (heavy, as listed by the source, chain 1 of 2): as the sequence (heavy, as listed by the source, chain 1 of 2) above
Sequence of ADI-26906 IgG1 LALA-Y296F (L234A/L235A/Y296F) (human) (light, as listed by the source, chain 2 of 2): as the sequence (light, as listed by the source, chain 2 of 2) above

[9] = target: ADI-26906 IgG1 LALA-A327G (L234A/L235A/A327G) (human); assay: as above
Sequence of ADI-26906 IgG1 LALA-A327G (L234A/L235A/A327G) (human) (heavy, as listed by the source, chain 1 of 2): as the sequence (heavy, as listed by the source, chain 1 of 2) above
Sequence of ADI-26906 IgG1 LALA-A327G (L234A/L235A/A327G) (human) (light, as listed by the source, chain 2 of 2): as the sequence (light, as listed by the source, chain 2 of 2) above

[10] = target: ADI-26906 IgG1 LALA-H268Q (L234A/L235A/H268Q) (human); assay: as above
Sequence of ADI-26906 IgG1 LALA-H268Q (L234A/L235A/H268Q) (human) (heavy, as listed by the source, chain 1 of 2): as the sequence (heavy, as listed by the source, chain 1 of 2) above
Sequence of ADI-26906 IgG1 LALA-H268Q (L234A/L235A/H268Q) (human) (light, as listed by the source, chain 2 of 2): as the sequence (light, as listed by the source, chain 2 of 2) above

[11] = target: ADI-26906 IgG1 LALE-K322A (L234A/L235E/K322A) (human); assay: as above
[12] = target: ADI-26906 IgG1 L234A/L235A (human); assay: as above
Sequence of ADI-26906 IgG1 L234A/L235A (human) (heavy, as listed by the source, chain 1 of 2): as the sequence (heavy, as listed by the source, chain 1 of 2) above
Sequence of ADI-26906 IgG1 L234A/L235A (human) (light, as listed by the source, chain 2 of 2): as the sequence (light, as listed by the source, chain 2 of 2) above

[13] = target: ADI-26906 IgG1 LALE-L328A (L234A/L235E/L328A) (human); assay: as above
[14] = target: ADI-26906 IgG1 LALE-D270A (L234A/L235E/D270A) (human); assay: as above
[15] = target: ADI-26906 IgG1 LALE-H268Q (L234A/L235E/H268Q) (human); assay: as above
Sequence of ADI-26906 IgG1 LALE-H268Q (L234A/L235E/H268Q) (human) (heavy, as listed by the source, chain 1 of 2): as the sequence (heavy, as listed by the source, chain 1 of 2) above
Sequence of ADI-26906 IgG1 LALE-H268Q (L234A/L235E/H268Q) (human) (light, as listed by the source, chain 2 of 2): as the sequence (light, as listed by the source, chain 2 of 2) above

[16] = target: ADI-26906 IgG1 LALA-L328A (L234A/L235A/L328A) (human); assay: as above
Sequence of ADI-26906 IgG1 LALA-L328A (L234A/L235A/L328A) (human) (heavy, as listed by the source, chain 1 of 2): as the sequence (heavy, as listed by the source, chain 1 of 2) above
Sequence of ADI-26906 IgG1 LALA-L328A (L234A/L235A/L328A) (human) (light, as listed by the source, chain 2 of 2): as the sequence (light, as listed by the source, chain 2 of 2) above

[17] = target: ADI-26906 IgG1 LALE-P331S (L234A/L235E/P331S) (human); assay: as above
Sequence of ADI-26906 IgG1 LALE-P331S (L234A/L235E/P331S) (human) (heavy, as listed by the source, chain 1 of 2): as the sequence (heavy, as listed by the source, chain 1 of 2) above
Sequence of ADI-26906 IgG1 LALE-P331S (L234A/L235E/P331S) (human) (light, as listed by the source, chain 2 of 2): as the sequence (light, as listed by the source, chain 2 of 2) above

[18] = target: ADI-26906 IgG1 L234A/L235E (human); assay: as above
Sequence of ADI-26906 IgG1 L234A/L235E (human) (heavy, as listed by the source, chain 1 of 2): as the sequence (heavy, as listed by the source, chain 1 of 2) above
Sequence of ADI-26906 IgG1 L234A/L235E (human) (light, as listed by the source, chain 2 of 2): as the sequence (light, as listed by the source, chain 2 of 2) above

[19] = target: ADI-26906 IgG1 LALA-A330S (L234A/L235A/A330S) (human); assay: as above
Sequence of ADI-26906 IgG1 LALA-A330S (L234A/L235A/A330S) (human) (heavy, as listed by the source, chain 1 of 2): as the sequence (heavy, as listed by the source, chain 1 of 2) above
Sequence of ADI-26906 IgG1 LALA-A330S (L234A/L235A/A330S) (human) (light, as listed by the source, chain 2 of 2): as the sequence (light, as listed by the source, chain 2 of 2) above

[20] = target: ADI-26906 IgG1 LALE-A330S/P331S (L234A/L235E/A330S/P331S) (human); assay: as above
[21] = target: ADI-26906 IgG1 LALA-A330S/P331S (L234A/L235A/A330S/P331S) (human); assay: as above
Sequence of ADI-26906 IgG1 LALA-A330S/P331S (L234A/L235A/A330S/P331S) (human) (heavy, as listed by the source, chain 1 of 2): as the sequence (heavy, as listed by the source, chain 1 of 2) above
Sequence of ADI-26906 IgG1 LALA-A330S/P331S (L234A/L235A/A330S/P331S) (human) (light, as listed by the source, chain 2 of 2): as the sequence (light, as listed by the source, chain 2 of 2) above

[22] = target: ADI-26906 IgG1 LALA-L309A (L234A/L235A/L309A) (human); assay: as above
Sequence of ADI-26906 IgG1 LALA-L309A (L234A/L235A/L309A) (human) (heavy, as listed by the source, chain 1 of 2): as the sequence (heavy, as listed by the source, chain 1 of 2) above
Sequence of ADI-26906 IgG1 LALA-L309A (L234A/L235A/L309A) (human) (light, as listed by the source, chain 2 of 2): as the sequence (light, as listed by the source, chain 2 of 2) above

[23] = target: ADI-26906 IgG1 LALA-L309V (L234A/L235A/L309V) (human); assay: as above
Sequence of ADI-26906 IgG1 LALA-L309V (L234A/L235A/L309V) (human) (heavy, as listed by the source, chain 1 of 2): as the sequence (heavy, as listed by the source, chain 1 of 2) above
Sequence of ADI-26906 IgG1 LALA-L309V (L234A/L235A/L309V) (human) (light, as listed by the source, chain 2 of 2): as the sequence (light, as listed by the source, chain 2 of 2) above

[24] = target: ADI-26906 IgG1 LALA-D265A (L234A/L235A/D265A) (human); assay: bead-based flow cytometry (Dynal bead assay); biotinylated CD3ε peptide on streptavidin Dyna Beads, saturated with antibody; beads incubated with C1q alone or with C1q and human complement C3, 25 min RT, PBSF; anti-C1q APC and anti-C3 PE
[25] = target: ADI-26906 IgG1 LALE-D265A (L234A/L235E/D265A) (human); assay: as above
Sequence of ADI-26906 IgG1 LALE-D265A (L234A/L235E/D265A) (human) (heavy, as listed by the source, chain 1 of 2): as the sequence (heavy, as listed by the source, chain 1 of 2) above
Sequence of ADI-26906 IgG1 LALE-D265A (L234A/L235E/D265A) (human) (light, as listed by the source, chain 2 of 2): as the sequence (light, as listed by the source, chain 2 of 2) above

For “ADI-26906 IgG1 LALA-L309A (L234A/L235A/L309A) (antibody)”, the MFI [1] was 4790 MFI.

Substance “ADI-26906 IgG1 LALA-L309V (L234A/L235A/L309V) (antibody)” has an MFI [1] of 4850 MFI.

“ADI-26906 IgG1 LALA-L328A (L234A/L235A/L328A) (antibody)” gave an MFI [1] of 6420 MFI.

For “ADI-26906 IgG1 LALA-P331S (L234A/L235A/P331S) (antibody)”, the MFI [1] was 4220 MFI.

“ADI-26906 IgG1 LALA-Y296F (L234A/L235A/Y296F) (antibody)” gave an MFI [1] of 3810 MFI.

In the case of “ADI-26906 IgG1 LALE-A330S (L234A/L235E/A330S) (antibody)”, the MFI [1] is reported as 2260 MFI.

Work on “ADI-26906 IgG1 LALE-A330S/P331S (L234A/L235E/A330S/P331S) (antibody)” yielded an MFI [1] of 1390 MFI.

Substance “ADI-26906 IgG1 LALE-D270A (L234A/L235E/D270A) (antibody)” has an MFI [1] of 546 MFI.

Work on “ADI-26906 IgG1 LALE-H268Q (L234A/L235E/H268Q) (antibody)” yielded an MFI [1] of 4000 MFI.

For “ADI-26906 IgG1 LALE-K322A (L234A/L235E/K322A) (antibody)”, the MFI [1] was 2320 MFI.

“ADI-26906 IgG1 LALE-L309A (L234A/L235E/L309A) (antibody)” was tested, and the MFI [1] was 2760 MFI.

For “ADI-26906 IgG1 LALE-L309V (L234A/L235E/L309V) (antibody)”, the MFI [1] was 3540 MFI.

For “ADI-26906 IgG1 LALE-L328A (L234A/L235E/L328A) (antibody)”, the MFI [1] was 7040 MFI.

With “ADI-26906 IgG1 LALE-P331S (L234A/L235E/P331S) (antibody)” the MFI [1] was 1760 MFI.

Substance “human FcγRI (CD64) (from UniProt P12314 16-374) (receptor)” has a response (RU) [2] of 17.7 RU, a response (RU) [3] of 4.2 RU and a response (RU) [4] of 3.3 RU. For the same substance, the response (RU) [5] was 19.9 RU, the response (RU) [6] was 9.7 RU and the response (RU) [7] was 4.9 RU. It also gave a response (RU) [8] of 19.1 RU, a response (RU) [9] of 14.3 RU and a response (RU) [10] of 22.9 RU. For the same substance, the response (RU) [11] was 4.6 RU, the response (RU) [12] was 23.5 RU and the response (RU) [13] was 3.5 RU. It also gave a response (RU) [14] of 1.8 RU, a response (RU) [15] of 4.3 RU and a response (RU) [16] of 13.6 RU. The response (RU) [17] was 3.3 RU, the response (RU) [18] was 3.8 RU and the response (RU) [19] was 19.9 RU. For the same substance, the response (RU) [20] was 2.6 RU, the response (RU) [21] was 15.8 RU and the response (RU) [22] was 21.6 RU. For the same substance, the response (RU) [23] was 25.2 RU.

Substance human complement C1q (complex) has a C1q Dynal FACS MFI [24] of 1950 MFI and a C1q Dynal FACS MFI [25] of 2280 MFI.
